Patent publication US20250188166A1

Assays:
[1] = biological target: native IL-18 wild-type (SEQ ID NO: 1) (human) (UniProt Q14116); assay: cell-based or functional assay
[2] = biological target: IL-18 polypeptide SEQ ID NO: 30 (E6K, V11I, C38A, K53A, T63A, C76A, C127A) (human) (UniProt Q14116); assay: cell-based or functional assay

IC50 of IL-18BPa on IFNγ secretion, PD-1^negative Parental NK-92 [1]: 2.97 nM | IC50 of IL-18BPa on IFNγ secretion, PD-1^positive NK-92 [1]: 2.67 nM | IC50 of IL-18BPa on IFNγ secretion, PD-1^negative Parental NK-92 [2]: 110 nM | IC50 of IL-18BPa on IFNγ secretion, PD-1^positive NK-92 [2]: 80.3 nM
Substance: His-tag human IL-18 binding protein isoform a (from UniProt O95998 31-194)
